The supplement of paper PMC9112550, “Optimization of the antimicrobial peptide Bac7 by deep mutational scanning” (BMC Biology, 2022)

Tested on: Escherichia coli TOP10
Assay: shrunken log2 fold change of peptide-encoding DNA abundance (4.5 h post-induction vs induction); higher = less antimicrobial activity (less host growth inhibition)
Conditions: time post-induction: 4.5 h; library: site-saturation at positions 5, 18, 19, 20
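Further: peptides expressed intracellularly from a pBAD plasmid library in pooled LB shake-flask culture, induced with 0.3% L-arabinose, DNA abundance read by NGS, three biological replicates, DESeq2 with apeglm shrinkage.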

Row | Sequence | shrunken log2 fold change
1 | RRIRFRPPRLPRPRPRPIWCPRP | -0.0176
2 | RRIRHRPPRLPRPRPRPDMPPRP | 0.144
3 | RRIRWRPPRLPRPRPRPEKPPRP | 2.12
4 | RRIRDRPPRLPRPRPRPAQDPRP | 0.684
5 | RRIRIRPPRLPRPRPRPIDIPRP | -0.0353
6 | RRIRYRPPRLPRPRPRPPLGPRP | -0.258
7 | RRIRVRPPRLPRPRPRPISYPRP | -0.158
8 | RRIRRRPPRLPRPRPRPLACPRP | 0.491
9 | RRIRERPPRLPRPRPRPIAGPRP | 0.0426
10 | RRIRNRPPRLPRPRPRPFMLPRP | -1.17
11 | RRIRMRPPRLPRPRPRPKSLPRP | 0.171
12 | RRIRSRPPRLPRPRPRPEFYPRP | -0.131
13 | RRIRKRPPRLPRPRPRPENSPRP | -0.131
14 | RRIRKRPPRLPRPRPRPRSIPRP | 0.176
15 | RRIRSRPPRLPRPRPRPIVFPRP | -0.0485
16 | RRIRERPPRLPRPRPRPQVLPRP | -0.0121
17 | RRIRERPPRLPRPRPRPCIQPRP | -1.15
18 | RRIRWRPPRLPRPRPRPSYCPRP | 0.366
19 | RRIRERPPRLPRPRPRPMYPPRP | -0.0412
20 | RRIRYRPPRLPRPRPRPSPDPRP | -0.0956
21 | RRIRFRPPRLPRPRPRPNVSPRP | -0.0196
22 | RRIRRRPPRLPRPRPRPLIVPRP | -0.0866
23 | RRIRDRPPRLPRPRPRPGSLPRP | -0.0141
24 | RRIRFRPPRLPRPRPRPIWQPRP | -0.146
25 | RRIRWRPPRLPRPRPRPEERPRP | 0.0923

Row | Sequence | shrunken log2 fold change
26 | RRIRLRPPRLPRPRPRPLHKPRP | 0.223
27 | RRIRLRPPRLPRPRPRPIKDPRP | -0.374
28 | RRIRKRPPRLPRPRPRPDLIPRP | -0.275
29 | RRIRWRPPRLPRPRPRPKDMPRP | -0.0331
30 | RRIRVRPPRLPRPRPRPHMNPRP | -0.499
31 | RRIRPRPPRLPRPRPRPDCLPRP | 0.0136
32 | RRIRSRPPRLPRPRPRPSNAPRP | -0.276
33 | RRIRHRPPRLPRPRPRPWSPPRP | -0.697
34 | RRIRTRPPRLPRPRPRPQYQPRP | -0.502
35 | RRIRCRPPRLPRPRPRPNSQPRP | -0.47
36 | RRIRQRPPRLPRPRPRPMYSPRP | -0.746
37 | RRIRDRPPRLPRPRPRPTLDPRP | 0.784
38 | RRIRSRPPRLPRPRPRPNDDPRP | 0.0402
39 | RRIRRRPPRLPRPRPRPSEYPRP | -0.192
40 | RRIRNRPPRLPRPRPRPSHNPRP | -0.643
41 | RRIRGRPPRLPRPRPRPEELPRP | 1.39
42 | RRIRPRPPRLPRPRPRPVKGPRP | 0.203
43 | RRIRDRPPRLPRPRPRPVERPRP | -0.00663
44 | RRIRMRPPRLPRPRPRPIDNPRP | 0.213
45 | RRIRKRPPRLPRPRPRPSISPRP | 0.146
46 | RRIRWRPPRLPRPRPRPDASPRP | 0.364
47 | RRIRRRPPRLPRPRPRPRFVPRP | 0.375
48 | RRIRERPPRLPRPRPRPDVPPRP | -0.117
49 | RRIRKRPPRLPRPRPRPGIKPRP | 0.34
50 | RRIRLRPPRLPRPRPRPLEGPRP | 0.765

Row | Sequence | shrunken log2 fold change
51 | RRIRTRPPRLPRPRPRPATEPRP | -0.0814
52 | RRIRPRPPRLPRPRPRPWIQPRP | 0.0178
53 | RRIRKRPPRLPRPRPRPQRRPRP | 0.734
54 | RRIRARPPRLPRPRPRPTSPPRP | 0.292
55 | RRIRVRPPRLPRPRPRPAVDPRP | 0.192
56 | RRIRGRPPRLPRPRPRPYCLPRP | -0.305
57 | RRIRIRPPRLPRPRPRPSASPRP | 0.0632
58 | RRIRVRPPRLPRPRPRPQMEPRP | -0.0589
59 | RRIRRRPPRLPRPRPRPRTGPRP | 0.476
60 | RRIRNRPPRLPRPRPRPVDWPRP | 0.218
61 | RRIRWRPPRLPRPRPRPEDCPRP | -0.00079
62 | RRIRKRPPRLPRPRPRPVFWPRP | 0.666
63 | RRIRRRPPRLPRPRPRPDHDPRP | 0.335
64 | RRIRFRPPRLPRPRPRPHVCPRP | -0.0299
65 | RRIRNRPPRLPRPRPRPMCKPRP | -0.175
66 | RRIRERPPRLPRPRPRPEHIPRP | -0.594
67 | RRIRHRPPRLPRPRPRPKKHPRP | -0.324
68 | RRIRVRPPRLPRPRPRPGGMPRP | 0.0665
69 | RRIRYRPPRLPRPRPRPCGFPRP | -0.241
70 | RRIRARPPRLPRPRPRPSARPRP | 0.479
71 | RRIRKRPPRLPRPRPRPVGEPRP | 1.18
72 | RRIRIRPPRLPRPRPRPHYEPRP | -0.618
73 | RRIRWRPPRLPRPRPRPWPPPRP | 0.546
74 | RRIRVRPPRLPRPRPRPMLWPRP | 0.0613
75 | RRIRYRPPRLPRPRPRPGMAPRP | -0.262

Row | Sequence | shrunken log2 fold change
76 | RRIRIRPPRLPRPRPRPLDEPRP | -0.287
77 | RRIRWRPPRLPRPRPRPFCEPRP | 0.376
78 | RRIRLRPPRLPRPRPRPTSGPRP | 0.0882
79 | RRIRHRPPRLPRPRPRPPDEPRP | 0.43
80 | RRIRTRPPRLPRPRPRPFASPRP | -0.00185
81 | RRIRIRPPRLPRPRPRPELHPRP | -0.2
82 | RRIRPRPPRLPRPRPRPMCLPRP | -0.0489
83 | RRIRKRPPRLPRPRPRPMKWPRP | -0.0374
84 | RRIRHRPPRLPRPRPRPWSHPRP | 0.0143
85 | RRIRLRPPRLPRPRPRPPYTPRP | -0.674
86 | RRIRWRPPRLPRPRPRPYDYPRP | -0.262
87 | RRIRQRPPRLPRPRPRPQSGPRP | -0.0474
88 | RRIRKRPPRLPRPRPRPQRCPRP | 0.269
89 | RRIRPRPPRLPRPRPRPTIFPRP | 0.0842
90 | RRIRGRPPRLPRPRPRPHFKPRP | 0.178
91 | RRIRGRPPRLPRPRPRPYTHPRP | -0.426
92 | RRIRKRPPRLPRPRPRPGSLPRP | -0.0469
93 | RRIRIRPPRLPRPRPRPMVNPRP | -0.294
94 | RRIRKRPPRLPRPRPRPIWLPRP | 0.00836
95 | RRIRKRPPRLPRPRPRPAMDPRP | 0.231
96 | RRIRSRPPRLPRPRPRPEAMPRP | 1.09
97 | RRIRMRPPRLPRPRPRPPYFPRP | 0.104
98 | RRIRFRPPRLPRPRPRPKVDPRP | -0.0492
99 | RRIRPRPPRLPRPRPRPVSKPRP | -0.166
100 | RRIRPRPPRLPRPRPRPVYRPRP | -0.166

Row | Sequence | shrunken log2 fold change
101 | RRIRLRPPRLPRPRPRPRCWPRP | 0.371
102 | RRIRSRPPRLPRPRPRPKPQPRP | 0.524
103 | RRIRTRPPRLPRPRPRPTIEPRP | -0.297
104 | RRIRIRPPRLPRPRPRPVVCPRP | -0.000979
105 | RRIRNRPPRLPRPRPRPCRCPRP | -0.307
106 | RRIRPRPPRLPRPRPRPVPNPRP | 0.14
107 | RRIRCRPPRLPRPRPRPYGPPRP | -0.398
108 | RRIRGRPPRLPRPRPRPAPRPRP | 1.85
109 | RRIRRRPPRLPRPRPRPTKAPRP | 0.372
110 | RRIRWRPPRLPRPRPRPWHPPRP | 0.0551
111 | RRIRFRPPRLPRPRPRPIWYPRP | 0.192
112 | RRIRVRPPRLPRPRPRPMDGPRP | 0.145
113 | RRIRDRPPRLPRPRPRPNDAPRP | 0.0621
114 | RRIRQRPPRLPRPRPRPHHVPRP | -0.0277
115 | RRIRVRPPRLPRPRPRPSVPPRP | -0.165
116 | RRIRHRPPRLPRPRPRPKHNPRP | 0.196
117 | RRIRWRPPRLPRPRPRPFIWPRP | 0.205
118 | RRIRCRPPRLPRPRPRPLRCPRP | 0.198
119 | RRIRIRPPRLPRPRPRPDALPRP | -0.206
120 | RRIRRRPPRLPRPRPRPGGCPRP | 0.325
121 | RRIRFRPPRLPRPRPRPRCQPRP | 0.24
122 | RRIRQRPPRLPRPRPRPHSGPRP | -0.01
123 | RRIRTRPPRLPRPRPRPMGMPRP | -0.12
124 | RRIRMRPPRLPRPRPRPAYMPRP | -0.0929
125 | RRIRVRPPRLPRPRPRPIVTPRP | -0.214

Row | Sequence | shrunken log2 fold change
126 | RRIRWRPPRLPRPRPRPVFKPRP | 0.0598
127 | RRIRPRPPRLPRPRPRPRFTPRP | 0.116
128 | RRIRRRPPRLPRPRPRPPHYPRP | 1.15
129 | RRIRQRPPRLPRPRPRPKCWPRP | 0.621
130 | RRIRYRPPRLPRPRPRPHKRPRP | -0.163
131 | RRIRNRPPRLPRPRPRPAHYPRP | -0.299
132 | RRIRGRPPRLPRPRPRPLYTPRP | 0.145
133 | RRIRTRPPRLPRPRPRPLLIPRP | -0.0383
134 | RRIRPRPPRLPRPRPRPKAEPRP | 0.279
135 | RRIRKRPPRLPRPRPRPRKPPRP | 1.65
136 | RRIRNRPPRLPRPRPRPNQSPRP | -0.157
137 | RRIRPRPPRLPRPRPRPGQLPRP | -0.0604
138 | RRIRKRPPRLPRPRPRPLCTPRP | 0.179
139 | RRIRTRPPRLPRPRPRPLLKPRP | -0.336
140 | RRIRCRPPRLPRPRPRPCWQPRP | -0.0116
141 | RRIRYRPPRLPRPRPRPECIPRP | -0.00318
142 | RRIRSRPPRLPRPRPRPRWMPRP | -0.206
143 | RRIRPRPPRLPRPRPRPHIHPRP | -0.82
144 | RRIRYRPPRLPRPRPRPRKAPRP | 0.00796
145 | RRIRKRPPRLPRPRPRPLSLPRP | -0.131
146 | RRIRLRPPRLPRPRPRPAPYPRP | 0.0426
147 | RRIRCRPPRLPRPRPRPMMKPRP | -0.231
148 | RRIRQRPPRLPRPRPRPCDWPRP | 0.202
149 | RRIRWRPPRLPRPRPRPSGSPRP | 0.316
150 | RRIRPRPPRLPRPRPRPNVNPRP | -0.46
